This is an account of results in patent US20180141989A1 (BOARD OF REGENTS OF THE UNIVERSITY OF OKLAHOMA, published 2018).

The target in assay [1] is T1, MBP-RAMP1 ECD-(GS)5-CLR ECD-H6 fusion protein (human, UniProt O60894 24-111; Q16602 29-144).
T1 construct: range 24-111;range 29-144; Tethered ECD fusion made in E. coli; used in the FP assay at 15 nM; also called MBP-hRAMP1.24-111-(Gly-Ser)5-hCLR.29-144-H6
The assay is described as follows: FP competition vs FITC-AM W/W probe, purified ECD fusion. On the procedure:
(§1) Fluorescence polarization peptide binding assay. […] The reactions (50 μL) were incubated for 2 hours at room temperature to reach equilibrium, and the anisotropy was measured in black half-area 96-well plates using a BMG LABTECH's POLARstar® Omega plate reader (Ortenberg, Germany). The reaction buffer was 50 mM HEPES, pH 7.5, 150 mM NaCl, 0.5 mg/ml fatty acid-free BSA, 0.5 mM EDTA, 0.5 mM maltose. KI values were calculated using nonlinear regression fitting of the competition curves to the exact analytical equations of Roehrl et al. (Biochemistry (2004) 43:16056-66) using GraphPad Prism 5.0 (GraphPad Software, San Diego Calif.).
(§2) The large size difference between the MBP-RAMP ECD-CLR ECD fusion proteins (˜65 kDa) and the probe (˜2.5 kDa) ensures a significant anisotropy difference between bound and free states of the probe. […] Kd values for the probe at each of the tethered ECD fusion proteins were determined in equilibrium saturation binding experiments (data not shown), and KI values were determined for unlabeled peptides in equilibrium competition experiments (Table 1; FIGS. 2-5). The data were analyzed according to exact analytical equations using non-linear regression curve fitting in GraphPad Prism 5.0 (GraphPad Software) via user-defined equations.

Assay [2] addresses T1, MBP-RAMP1 ECD-(GS)5-CLR ECD-H6 fusion …. Kind of assay: FP (anisotropy) competition: displaces FITC-Ahx-AM(37-52)NH2[S45W,Q50W] probe (7 nM) from MBP-RAMP1 ECD-(GS)5-CLR ECD-H6 (15 nM) [F-H) panel G]. On the procedure: as §1
Assay [3] shares this target. Kind of assay: FP (anisotropy) competition: displaces FITC-Ahx-AM(37-52)NH2[S45W,Q50W] probe (7 nM) from MBP-RAMP1 ECD-(GS)5-CLR ECD-H6 (15 nM) [D-E) panel D]. The protocol:
as §1
as §1, with “Single representative experiments conducted with duplicate samples are shown.” for “Fluorescence polarization peptide binding assay.”, “reactions” for “reactions (50 μL)”

For assay [4] the target is unchanged. Kind of assay: ratio of FP KI values at the two ECD complexes. The protocol: as §1, §2
Assay [5] has the same target. Kind of assay: FP (anisotropy) competition: displaces FITC-Ahx-AM(37-52)NH2[S45W,Q50W] probe (7 nM) from MBP-RAMP1 ECD-(GS)5-CLR ECD-H6 (15 nM) [D-E) panel E]. On the procedure: as §1
as §1, with “Single representative experiments conducted with duplicate samples are shown.” for “Fluorescence polarization peptide binding assay.”, “reactions” for “reactions (50 μL)”

Assay [6] concerns the target MBP-RAMP2 ECD [L106R]-(GS)5-CLR ECD-H6 fusion protein (human) (UniProt O60895). Kind of assay: FP competition vs FITC-AM W/W probe, purified ECD fusion.

Where no end group is shown, it is not given here.

T1 sequence (O60894 other isoform, or with tags, fused parts or gaps limits assumed, form in doubt): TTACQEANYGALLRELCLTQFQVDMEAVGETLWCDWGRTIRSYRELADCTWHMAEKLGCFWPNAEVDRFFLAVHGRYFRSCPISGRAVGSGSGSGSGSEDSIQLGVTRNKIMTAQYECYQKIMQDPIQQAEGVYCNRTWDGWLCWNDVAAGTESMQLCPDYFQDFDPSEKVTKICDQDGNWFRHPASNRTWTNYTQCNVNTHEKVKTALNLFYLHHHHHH
Chain of MBP-RAMP2 ECD [L106R]-(GS)5-CLR ECD-H6 fusion protein (human) (O60895 other isoform, or with tags, fused parts or gaps L106R L106R): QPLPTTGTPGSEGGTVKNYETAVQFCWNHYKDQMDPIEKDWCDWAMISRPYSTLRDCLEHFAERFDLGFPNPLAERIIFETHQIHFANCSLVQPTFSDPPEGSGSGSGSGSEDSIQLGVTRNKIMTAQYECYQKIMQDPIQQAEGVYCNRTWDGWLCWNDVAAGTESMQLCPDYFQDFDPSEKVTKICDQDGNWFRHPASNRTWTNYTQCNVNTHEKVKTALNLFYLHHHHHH

A word on the Ki: it is a dissociation constant, usually derived from enzyme kinetics or from competition with a known ligand. In assay [1], DKDNVAPRWLMSPWGF-NH2 [AM(37-52)NH2 [S45W, K46L, I47M, Q50W, Y52F]] came in with a Ki of 0.78 nM and a pKI of 9.11. Moreover, the “IC50 (read off the curve)” value in assay [2] was roughly 10 nM.

Consider FVPTDTGPWGF-NH2 [CGRP(27-37)NH2 [N31D, V32T, S34P, K35W, A36G]], for which, in assay [3], the “IC50 (read off the curve)” value was roughly 30 nM. In assay [1], this molecule showed a Ki of 6.85 nM and a pKI of 8.16.

In assay [1], FVPTDTGPWSF-NH2 [CGRP(27-37)NH2 [N31D, V32T, S34P, K35W, A36S]] displayed a Ki of less than 1 nM and a pKI greater than 9. Further, the “Receptor Selectivity (fold, over RAMP2-CLR ECD)” value in assay [4] was no less than 2750 fold. Besides, the “IC50 (read off the curve)” value in assay [5] is roughly 10 nM. For the same molecule, in assay [6], the Ki came out at 2750 nM and the pKI came to 5.56.
